Columns and labels:
FaDu cells = test: Tumor tissue penetration of co-administered doxorubicin (IHC); assay type: in vivo, Balb/c nude mice; details: doxorubicin 10 mg/kg with 2.5 mg/kg PBS, Fc or Fc-TPP11 intravenously, 1 hour
Method: In order to examine tumor tissue penetration of a small-molecule drug co-administered with the Fc-TPP11 constructed in the above-described experiment, immunohistochemistry was performed. Specifically, each of Balb/c nude mice was injected subcutaneously with 5×10^6 FaDu cells, and after about 15 days, when the tumor volume reached about 300 to 400 mm^3, 10 mg/kg of the anticancer drug doxorubicin and 2.5 mg/kg of each of PBS, Fc and Fc-TPP11 were injected intravenously into each mouse. At 1 hour after injection, the mouse heart was perfused with PBS and perfused with 4% para-formaldehyde to fix tissue. Next, the tumor tissue was extracted and subjected to immunohistochemistry. The extracted tumor was sectioned to a thickness of 20 μm by a frozen-section method, and the blood vessels were stained with the primary antibody CD31 (BD Pharmingen) and a FITC (green fluorescence)-labeled secondary antibody recognizing the same.
According to the same method as that used for FIG. 18(A), doxorubicin and each of PBS, Fc and Fc-TPP11 were injected intravenously into mice, and the mouse heart was perfused with PBS, and the tumor tissue was extracted. […] Then, the tissue was thawed at 37° C. and centrifuged, and the fluorescence (Excitation 485 nm/emission 528 nm) of the supernatant was measured to quantify the amount of doxorubicin penetrated.

VE-cadherin = test: Western blot of VE-cadherin in HUVEC; assay type: cell-based, human; details: 10 minutes
Method: Specifically, 5×10^5 HUVEC cells were seeded into each well of a 6-well plate and incubated for 24 hours, […] constant Fc region and the selected peptide that binds specifically to NRP1, for 10 minutes, followed by Western blot analysis. After SDS-PAGE, the gel was transferred to a PVDF membrane, and detection was performed using primary antibodies (SantaCruz) that recognize VE-cadherin and β-actin and using HRP-conjugated secondary antibody (SantaCruz), and analysis was performed using ImageQuant LAS4000 mini (GE Healthcare).

HUVEC cells [1] = test: Wound healing assay (migration of vascular endothelial cells); assay type: cell-based, human; details: VEGF165A 20 ng/ml, 1 μM, 18 hours
Method: In addition to the results obtained in Examples 8(1) and 8(2), in order to examine the inhibitory activity of Fc-TPP11 against VEGF165A-induced migration of vascular endothelial cells, a wound healing assay was performed. In an experimental method, 5×10^5 HUVEC cells were seeded into each well of a 6-well plate, and then incubated in 0.5% serum EBM2 medium containing 1 μg/ml mitomycin c for 1 hour until the cells were saturated (95% or more) in the plate. The dish bottom was linearly rubbed with a yellow tip to make injury lines having a uniform width. Then, the cells were washed with PBS such that the cells were detached from the bottom. After removal of PBS, medium was added slowly to the HUVEC cells. The cells were treated with 0 or 20 ng/ml of VEGF165A, treated with each of Fc and Fc-TPP11 (1 μM), and then incubated under the conditions of 37° C. and 5% CO2. The cells were imaged with a microscope (Primo vert, Carl Zeiss co., Germany) at 0 hour and 18 hours, and the distance between both ends, measured with a computer program (AxioVision LE, Carl Zeiss co., Germany) included in the microscope, was statistically processed.

HUVEC cells [2] = test: Transwell invasion assay of vascular endothelial cells; assay type: cell-based, human; details: VEGF165A 20 ng/ml, 1 μM, 12 hours
Method: Additionally, in order to examine the inhibitory activity of Fc-TPP11 against VEGF165A-induced invasion of vascular endothelial cells, a transwell assay was performed. A transwell (Corning Costar, USA) having a polycarbonate membrane with a […] pore size was used. Matrigel (Corning Costar, USA) was coated on the lower layer surface of the filter at a ratio of 1:10 and polymerized for 2 hours under the conditions of 37° C. and 5% CO2, and then 5×10^4 HUVEC cells and each of Fc and Fc-TPP11 (1 μM) were seeded in EBM2 medium in the upper layer well. In addition, EBM2 medium containing VEGF165A (20 ng/ml) was added to the lower layer well. Next, the cells were incubated for 12 hours under the conditions of 37° C. and 5% CO2, and then unmoved cells in the upper layer well were removed with cotton, and the cells were fixed with 4% para-formaldehyde. Then, the cells were stained with crystal violet.

HUVEC cells [3] = test: Tube formation assay in HUVEC; assay type: cell-based, human; details: VEGF165A 20 ng/ml, Fc-TPP11 1 μM, 8 hours
Method: VEGF165A is known to […] angiogenesis using NRP1 as a co-receptor. Based on this, as a method capable of observing angiogenesis in vitro, a tube formation assay was performed. In an experimental method, 50 μl of ECMatrix was added to a 96-well plate and polymerized at 37° C. for 2 hours. After 2 hours, HUVEC cells were suspended in EBM2 medium, mixed with VEGF165A (20 ng/ml), Fc or Fc-TPP11 (1 μM), plated on the ECMatrix at a density of 1×10^4 cells per well, and incubated for 8 hours. The incubated cells were imaged with a microscope.

[4] = tested on: human umbilical vein endothelial cells (HUVECs); test: Transwell assay of penetration of vascular endothelial cells (dextran-FITC); assay type: cell-based; details: 1 μM for 30 minutes (VEGF165A about 1.3 nM); dextran-FITC fluorescence in lower chamber
Method: Specifically, 5×10^4 human umbilical vein endothelial cells (HUVECs) were seeded into the upper chamber of a transwell plate (Corning) and incubated in EGM2 for 3 days under the conditions of 37° C. and 5% CO2. […] Then, 50 μl of dextran-FITC (Sigma) was added to the upper chamber. After 30 minutes, based on the principle according to which the fluorescent substance would be observed when penetration into the vascular endothelial cells was increased, the medium was sampled from the lower chamber and the fluorescence thereof was measured.

Molecule | tumor tissue penetration of doxorubicin (FaDu cells) | change in VE-cadherin (VE-cadherin) | migration activity of vascular endothelial cells (HUVEC cells [1]) | invasion activity of vascular endothelial cells (HUVEC cells [2]) | tube formation (HUVEC cells [3]) | ability to penetrate vascular endothelial cells [4]
COc1cccc2c1C(=O)c1c(O)c3c(c(O)c1C2=O)C[C@@](O)(C(=O)CO)C[C@@H]3O[C@H]1C[C@H](N)[C@H](O)[C@H](C)O1 [doxorubicin] | little or no red fluorescence was observed |  |  |  |  | 
VEGF165A: vascular endothelial cell growth factor-A, NRP1 ligand used as control (protein) APMAEGGGQNHHEVVKFMDVYQRSYCHPIETLVDIFQEYPDEIEYIFKPSCVPLMRCGGCCNDEGLECVPTEESNITMQIMRIKPHQGQHIGEMSFLQHNKCECRPKKDRARQENPCGPCSERRKHLFVQDPQTCKCSCKNTDSRCKARQLELNERTCRCDKPRR |  | a decrease in VE-cadherin was observed | increased the migration activity of vascular endothelial cells | increased the invasion activity of vascular endothelial cells | tube formation increased | had an increased ability to penetrate vascular endothelial cells
